pKd: −log10 of the molar value.
Tests used:
[1] = target: anti-gH Mab OHV-3 (murine); experiment: SPR; Biacore T200, CM5 chip; Mab captured via immobilised Protein A/Protein L; soluble tetramer injected at 5, 10, 20, 40 and 80 nM; single-cycle kinetics
[2] = target: recombinant hCD134 with C-terminal human FcHis-tag replacing the transmembrane domain (hCD134-hFcHis) (human) (UniProt P43489); experiment: SPR; Biacore T200, CM5 chip; hCD134-hFcHis captured via immobilised Protein A; soluble tetramer injected; steady-state affinity analysis of the response units at equilibrium
UniProt P43489, sequence (P43489 29-214): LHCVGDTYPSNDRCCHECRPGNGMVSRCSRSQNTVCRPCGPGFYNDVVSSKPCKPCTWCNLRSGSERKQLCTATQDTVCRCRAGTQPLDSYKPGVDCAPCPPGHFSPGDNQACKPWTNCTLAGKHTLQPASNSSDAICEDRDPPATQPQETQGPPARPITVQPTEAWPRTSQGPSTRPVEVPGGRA

[3] = target: recombinant hCD134 with C-terminal human FcHis-tag replacing the transmembrane domain (hCD134-hFcHis) (human) (UniProt P43489); experiment: SPR; Biacore T200, CM5 chip; hCD134-hFcHis captured via immobilised Protein A; soluble tetramer injected; multi-cycle kinetics, 1:1 binding fit

anti-gH Mab OHV-3 (murine), sequence (heavy, as listed by the source, chain 1 of 2): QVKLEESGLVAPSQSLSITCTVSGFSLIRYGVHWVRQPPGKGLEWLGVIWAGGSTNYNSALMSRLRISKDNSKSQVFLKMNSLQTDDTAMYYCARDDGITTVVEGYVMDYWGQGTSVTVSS
anti-gH Mab OHV-3 (murine), sequence (light, as listed by the source, chain 2 of 2): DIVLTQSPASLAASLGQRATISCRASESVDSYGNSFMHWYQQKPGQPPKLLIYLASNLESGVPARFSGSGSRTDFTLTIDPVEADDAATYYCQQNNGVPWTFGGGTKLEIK

soluble HHV-6B gH/gL/gQ1/gQ2 complex (HHV-6B tetramer)
pKd [1]: 8.57 | koff [1]: 0.00035 s⁻¹ | kon [1]: 130000 M⁻¹ s⁻¹ | pKd [2]: 7.74 | pKd [3]: 7.85 | koff [3]: 0.0158 s⁻¹ | kon [3]: 1.1e+06 M⁻¹ s⁻¹
